The target of the experiment is tissue plasminogen activator (human) (UniProt P00750). The experiment can be described thus: cell-based or functional assay.
Sequence of UniProt P00750 (P00750 36-562 limits assumed): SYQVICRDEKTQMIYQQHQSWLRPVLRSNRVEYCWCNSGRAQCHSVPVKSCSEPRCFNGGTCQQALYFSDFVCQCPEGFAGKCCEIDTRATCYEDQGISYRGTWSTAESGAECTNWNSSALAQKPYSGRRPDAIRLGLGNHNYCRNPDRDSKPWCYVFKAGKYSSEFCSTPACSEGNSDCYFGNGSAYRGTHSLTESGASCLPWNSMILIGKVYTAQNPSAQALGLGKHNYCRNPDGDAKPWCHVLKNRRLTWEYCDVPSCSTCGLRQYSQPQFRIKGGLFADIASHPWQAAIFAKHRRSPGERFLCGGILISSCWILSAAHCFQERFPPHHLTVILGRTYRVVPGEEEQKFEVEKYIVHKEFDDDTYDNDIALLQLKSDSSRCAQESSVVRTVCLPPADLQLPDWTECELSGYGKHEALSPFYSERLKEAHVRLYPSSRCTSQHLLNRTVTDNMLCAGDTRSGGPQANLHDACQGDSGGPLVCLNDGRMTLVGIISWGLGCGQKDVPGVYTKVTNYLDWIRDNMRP

“Histidine-tagged recombinant human Annexin A2 (from UniProt Q3ZCQ2 1-193)” came in with an in vitro plasmin-generating capability of tPA (plasmin activity assay) of 4 fold.

Values taken from patent publication US9314499.
